From patent publication US20250188153A1

Key:
Assay in all cases: ELISA on coated recombinant protein, OD 405 nm
[1] = target: hMPV A1 F (human metapneumovirus)
[2] = target: hMPV A1 F monomer (human metapneumovirus)
[3] = target: hMPV A1 F trimer (heated) (human metapneumovirus)
[4] = target: hMPV A2 F (human metapneumovirus)
[5] = target: hMPV B1 F (human metapneumovirus)
[6] = target: hMPV B2 F GCN4 (human metapneumovirus)
[7] = target: hMPV B2 F monomer (human metapneumovirus)
[8] = target: hMPV B2 F protein (his-tagged, not trypsin treated) (human metapneumovirus)
[9] = target: hMPV B2 F trimer (heated) (human metapneumovirus)

Row | Binder | EC50 [1] | EC50 [2] | EC50 [3] | EC50 [4] | EC50 [5] | EC50 [6] | EC50 [7] | EC50 [8] | EC50 [9]
1 | MPV482 (antibody, V domains shown) VH: EVQLVQSGGGVVQPGRSLRLSCAASGFTFSSFAMHWVRQAPGKGLEWVALISDDGNNKYHADSVKGRFTISRDSSKNTLYLQMNSLRGEDTAVYYCARDGSVVGAAAHCDHWGQGTLVTVSS VL: SYELTQPPSVSVSPGQTARITCSGDALPNQCAYWYQQKPGLAPVLLIYKDKERPSGIPERFSGSISGTTVTLTISGVQAEDEADYYCQSSDSSSTVVFGGGTKLTVL | 0.13 µg/mL | 0.29 µg/mL | 0.35 µg/mL | 0.057 µg/mL | 0.072 µg/mL | 0.092 µg/mL | 0.2 µg/mL | 0.33 µg/mL | –
2 | MPV489 (antibody, V domains shown) VH: EVQLLESGGGLVQPGGSLRLSCAASKFTFNNYEMNWLRQAPGKGLEWVSSISSSGDTIHNADSVKGRFIISRDNAKNSLHLQMNGLRAEDTAVYYCARAGSGWAYDAFDIWGLGTMVTVSS VL: LSASVGDRVTITCRASQSISSFLNWYQQKPGKAPKLLMYAASSLPVGVPSRFSGSGSGPEYTLTISNLQPEDFATYYCQQGYSSPPTFGGGTRLEVK | 5 µg/mL | 7 µg/mL | 4.5 µg/mL | 9.3 µg/mL | – | 2.3 µg/mL | 1.3 µg/mL | 4.2 µg/mL | 18 µg/mL
3 | MPV86 (antibody, V domains shown) VH: QVQLVQSGAEVKKPGSSVKVSCKASGDTFNDVALSWVRQAPGQGLEWLGGIIPFFGTANYAQRFQDRVTITADASTSTAYLELGGLRSEDTAVYYCARGWSCRNITCFMMGYYFYIMDVWGQGTLVTVSS VL: LSLSPGERATLSCRASQSVGNFLAWYQQKPGQTPRLLIQDASNRATGIPARFSGTGSGTDFTLTISSLEPEDFAVYYCQQRSNWPPTFGPGTKVDIK | 0.3 µg/mL | 0.18 µg/mL | – | 0.083 µg/mL | 0.073 µg/mL | 0.12 µg/mL | 0.21 µg/mL | 5.7 µg/mL | –
4 | MPV414 (antibody, V domains shown) VH: QVQLVQSGPEVKKPGSSVMVSCKTSGGNFNNFAISWVRQAPGQGLEWMGGIVPIFGTANYAQKSQDRVTITADPSSSTAYLQLSSLTSDDTAIYYCARDLGRSSNYYYYSVFESWGQGTLVTVSS VL: DIVMTQSPATLSLSPGERATLSCRASQSVGDKLAWYQQKPGQAPRLLIYGASTRATDIPARFSGSGSGTEFTLTVSSLQPEDFAVYYCQQYENWPPITFGQGTRLEIK | 0.15 µg/mL | 0.074 µg/mL | – | 0.034 µg/mL | 0.034 µg/mL | 0.061 µg/mL | 0.19 µg/mL | 1.8 µg/mL | –
5 | MPV488 (antibody, V domains shown) VH: EVQLVQSGFEVKKPGASVKVSCKASGYNFNNYGISWVRQAPGQGLEWMGWISAYTGNTNEAQKFQGRVSMTTDTSTSTAYMEVRSLRSDDTAVYYCARDIGSSMFYSYFYGMDVWGQGTTVIVSS VL: SLSVSLGERATINCKSSESVLYNSNNENYLDWYQQKPGQPPKLLIYWASTRASGVPDRFSGSASGTDFTLTISSLQAEDVAVYYCQQYYSTPRTFGQGTKVEIK | – | – | – | – | – | 0.073 µg/mL | 0.063 µg/mL | – | –
6 | MPV487 (antibody, V domains shown) VH: EVQLLESGGGLVQPGRSLRLSCTASGFTFDDYAMHWVRQLPGKGLEWVSGISWNSDNIGYADSVKGRFTISRDNGKNSLYLQMNSLRAEDTAFYYCAKDVRIDYDLLIGHIDYWGPGTLVTVSS VL: TQSPVTLSLSPGERATLSCRASQSFGGYCAWYQQKPGQSPRLLIYDASNRATGVPARFSGSGSGTDFTLTISSLEPEDSAVYFCQQRGNWPIFGQGTRLEI | 0.11 µg/mL | 0.13 µg/mL | – | 0.1 µg/mL | 0.065 µg/mL | 0.071 µg/mL | 0.099 µg/mL | 0.37 µg/mL | 0.54 µg/mL
